These results are taken from patent US20030235860A1, “Interactions between AR, ER, TR2, and TR4” (priority 1999, published 2003).

No end group written: not given here.

The target in experiment [1] is T1, GST-TR2 (Homo sapiens, UniProt P13056).
T1 construct: pGEX-3x-TR2 were constructed by inserting full-length TR2 fragments to individual vectors; made in house; host or cells: E. coli BL21(DE3) pLysS
T1 sequence (P13056 1-603): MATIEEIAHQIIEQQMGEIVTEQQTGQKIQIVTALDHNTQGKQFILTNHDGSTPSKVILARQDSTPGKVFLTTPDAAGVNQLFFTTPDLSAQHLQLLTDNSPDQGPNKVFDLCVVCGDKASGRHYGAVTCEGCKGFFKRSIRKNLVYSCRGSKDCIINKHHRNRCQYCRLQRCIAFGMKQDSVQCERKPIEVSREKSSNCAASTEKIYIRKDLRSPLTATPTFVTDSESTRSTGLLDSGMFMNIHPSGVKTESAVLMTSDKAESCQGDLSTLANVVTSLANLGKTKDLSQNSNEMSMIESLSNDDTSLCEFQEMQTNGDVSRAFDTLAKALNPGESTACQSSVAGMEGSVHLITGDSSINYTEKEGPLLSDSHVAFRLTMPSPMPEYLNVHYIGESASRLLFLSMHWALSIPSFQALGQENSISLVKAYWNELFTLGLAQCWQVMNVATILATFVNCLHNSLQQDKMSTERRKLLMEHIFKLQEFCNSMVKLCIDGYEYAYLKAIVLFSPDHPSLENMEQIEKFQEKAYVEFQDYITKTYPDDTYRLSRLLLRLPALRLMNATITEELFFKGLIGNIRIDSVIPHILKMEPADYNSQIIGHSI
The experiment in a line: GST-TR2 pull-down assay. Conditions: for Interaction with GST-TR2 fusion protein: 35S methionine-labeled proteins, Example 4; for Interaction with GST-TR2 in pull-down assay / Direct interaction with GST-TR2 fusion protein: in vitro translated [35S]-labeled proteins; for Interaction with GST-TR2 in pull-down assay: Example 1; for Direct interaction with GST-TR2 fusion protein: Example 2. The format is binding. Here is the method: Fusion proteins of GST-TR2, GST-ER segments and GST were obtained by transforming expressing plasmids into BL21(DE3) pLysS competent bacteria followed with 2-hour IPTG induction. GST-proteins were then purified by mixing Glutathione-Sepharose™ 4B (Pharmacia) into bacteria lysates on a rotating disk at 4° C. for 40 mm followed by washing with 1 mL NENT buffer (20 mM Tris-HCL (pH 8.0), 100 mM NaCl, 1 mM EDTA, 6 mM MgCl2, 1 mM Dithiothretiol, 8% Glycerol, 1 mM PMSF and 0.5% (v/v) NP-40). The ER, AR, RXRA., and TR2 proteins labeled with [35S] were generated in vitro by using the TNT reticulocyte lysate system (Promega). For the in vitro interaction, the glutathione-Sepharose bound GST-proteins were resuspended with 100 μl of interaction buffer (20 mM HEPES pH 7.9, 150 mM KCl, 5 mM MgCl2. 0.5 mM EDTA, 0.5 mM Dithiothretiol, 0.1% (v/v) NP-40, 0.1% (w/v) BSA and 1 mM PMSF) and mixed with 5 μl of […] at 4° C. for 3 h. After extensive washes with NENT buffer, the bound proteins were separated on an SDS/8% PAGE and visualized by using autoradiography.
GST alone and GST fusion proteins were purified by Glutathione-Sepharose 4B beads as instructed by manufacturer (Amersham Pharmacia). The pull-down assay was performed with 5 μl of in vitro-translated [^35S]-labeled proteins as described previously (Yeh, S. et al. (2000) Proc. Natl. Acad. Sci. USA 97, 11256-61).
GST control protein and GST-TR2 fusion protein were purified by glutathione-sepharose 4B beads as described by manufacture (Amersham. Biosciences). Five microliters of in vitro-translated 35S-methionine-labeled proteins was used to perform the Pull-down assay as described previously [4F].

Experiment [2] concerns the target T2, GST-TR4 (Homo sapiens, UniProt P49116).
T2 construct: which used the full length of TR4 containing AF-1; made in house
T2 sequence (P49116 1-615 isoform P49116-2 N175S/W419R/A428G/K503N/L504W/A613V): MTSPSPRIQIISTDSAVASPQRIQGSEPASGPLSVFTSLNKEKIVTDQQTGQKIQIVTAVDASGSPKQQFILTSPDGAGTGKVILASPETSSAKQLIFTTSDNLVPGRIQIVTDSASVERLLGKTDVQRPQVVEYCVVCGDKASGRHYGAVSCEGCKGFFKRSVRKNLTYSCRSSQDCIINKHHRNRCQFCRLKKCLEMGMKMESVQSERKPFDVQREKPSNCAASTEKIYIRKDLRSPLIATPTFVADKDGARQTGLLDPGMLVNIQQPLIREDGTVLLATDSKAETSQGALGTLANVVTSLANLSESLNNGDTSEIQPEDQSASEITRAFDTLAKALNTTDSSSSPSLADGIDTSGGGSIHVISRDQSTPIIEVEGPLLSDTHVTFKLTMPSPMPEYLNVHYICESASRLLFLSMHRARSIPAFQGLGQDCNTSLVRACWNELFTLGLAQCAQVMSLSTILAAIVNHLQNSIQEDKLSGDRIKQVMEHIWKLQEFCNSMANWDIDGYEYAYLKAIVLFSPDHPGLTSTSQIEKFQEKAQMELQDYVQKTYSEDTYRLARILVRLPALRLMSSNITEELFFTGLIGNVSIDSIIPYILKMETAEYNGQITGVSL
The experiment in a line: GST-TR4 pull-down assay. The format is binding. Conditions: for Interaction with GST-TR4 fusion protein: [35S]-methionine labeled proteins, absence of E2, Example 3; for Interaction with GST-TR4 in pull-down assay: in vitro translated 35S methionine-labeled proteins, Example 1. Here is the method: GST-TR4 fusion protein and GST control protein were purified as instructed by the manufacturer (Pharmacia). […] of in vitro translated 35S methionine-labeled proteins were used to perform a pull-down assay as described previously. Cacailles, et al., EMBO 14, 3741-3751 (1995).
Using a GAL4-TR4 fusion protein as bait, the yeast two-hybrid system was used to isolate several potential TR4 associated proteins. […] A GST-TR4 fusion protein pull-down assay was performed to further confirm the result. GST-TR4 fusion protein and GST control protein were purified as instructed by the manufacturer (Pharmacia).
A GST pull-down assay was performed according to the methods described previously (Lee, Y. et al. (1999) Proc. Natl. Acad Sci. USA. 96(26) 14724-9).
Briefly, the GST fusion protein and GST control protein were expressed in an Escherichia coli strain BL21 (DE3) pLys bacterial culture and recovered on glutathione-Sepharose-4B beads. Equal amounts of GST fusion protein bound to glutathione-Sepharose-4B beads were incubated for 2 h at 4° C. with 5 μl of in vitro translated [^35S]methionine-labeled protein in a total volume of 100 µl of incubation buffer (20 mM HEPES/pH 7.9, 150 mM KCl, 5 mM MgCl2, 0.5 mM EDTA, 0.5 mM dithiothreitol, 0.1% Nonidet P-40, 1 mg/ml bovine serum albumin, and 10% glycerol), and protease inhibitor mixture (1 mM phenylmethylsulfonyl fluoride, 1 μg/ml aprotinin, leupeptin, and pepstatin). The beads were then washed three times with wash buffer (20 mM Tris/pH 8.0, 100 mM NaCl, 1 mM EDTA, and 0.5% Nonidet P-40), boiled in 2×SDS sample buffer, loaded onto SDS-polyacrylamide gels, and visualized by autoradiography.

With “ER-#6: interaction blocker, ER fragment aa 312-340, as HA-tagged peptide, expression plasmid or cleaved peptide (ADQMVSALLDAEPPILYSEYDPTRPFSEA; also: HA tag (position not given here); UniProt P03372 312-340, looked up, fragment)”, the “Interaction of GST-TR2 with [35S]-labeled ER” value in experiment [1] (increasing amounts of HA-ER-#6 peptide, absence of E2) was “inhibited”.

As for “RXR: retinoid X receptor, another member of the steroid receptor superfamily”, in experiment [2], the “Interaction with GST-TR4 fusion protein” value is on record as “unable to interact” and the “Interaction with GST-TR4 in pull-down assay” value is on record as “no interaction”. Besides, in experiment [1], the “Interaction with GST-TR2 fusion protein” value was “not able to interact”, the “Interaction with GST-TR2 in pull-down assay” value is on record as “not” and the “Direct interaction with GST-TR2 fusion protein” value was “not”.

For the molecule AR: androgen receptor, SEQ ID NO:31, in experiment [2], the “Interaction with GST-TR4 fusion protein” value was “binds well” and the “Interaction with GST-TR4 in pull-down assay” value is given as “physically interact”. For the same molecule, in experiment [1], the “Interaction with GST-TR2 fusion protein” value was “able to interact”, the “Interaction with GST-TR2 in pull-down assay” value is given as “can interact well” and the “Direct interaction with GST-TR2 fusion protein” value is recorded as “directly interact”.

B1: TR2: human testicular orphan nuclear receptor 2, 603 amino acids (protein, UniProt P13056 1-603, looked up)
chain: T1 sequence (P13056 1-603)
modifications: full-length
notes: human testicular orphan nuclear receptor 2, 603 amino acids
On to B1, for which, in experiment [2], the “Interaction with GST-TR4 in pull-down assay” value is reported as “physically interact”.
